Assay results from patent US20150183856A1 (ABLBIO, published 2015).

How the values were obtained:
[1] = target: T1, human DLL4 extracellular domain protein, His-tagged (R&D System Cat: 1506-D4/CF) (human, UniProt Q9NR61 27-522); assay: ELISA, plate coated with hDLL4-His 2 ug/ml, bound antibody detected with HRP-conjugated anti-Fab
T1 construct: range 27-522; Bought protein; also called hDLL4-His; human DLL4-His; not shown: C-terminal histidine tag
Protocol: The anti-DLL4 antibody-antigen binding affinity was evaluated using an ELISA-based binding test. A 96-well microtiter plate (Nunc-Immuno Plate, NUNC, Rochester, N.Y.) was coated with 2 μg/ml of hDLL4-His protein in PBS solution at 4° C. overnight, and non-specific binding sites were blocked with BSA (bovine serum albumin) for 2 hours. The anti-DLL4 antibody (purified protein) on the 96-well microtiter plate was transferred to a microtiter plate at an antibody concentration ranging from 0 nM to 128 nM. Then, the plate was incubated for 2 hours, after which the plate was washed five times with 0.05% tween 20-containing PBS, and in order to detect the plate-bound DLL4 antibody, an HRP-conjugated Fab polyclonal antibody reagent (Pierce) was diluted at a ratio of 1:10,000, transferred to the washed microtiter plate, and then allowed to react at 37° C. for 1 hour. After the reaction, color development was performed using a colorimetric substrate (3,3′,5,5′-tetramethylbenzidine; Sigma-Aldrich Co.). The enzymatic reaction was stopped using 0.5 mol/l of sulfuric acid, and the absorbance at 450 nm-650 nm was recorded using a microplate reader (molecular device). As a result, it was shown that the binding affinities of the antibodies for DLL4 increased in a concentration-dependent manner (FIG. 2).

[2] = target: T1, human DLL4 extracellular domain …; assay: SPR (Biacore T200), hDLL4 immobilised on a CM5 chip, antibody as analyte; the table says 'Bivalent binding'
Protocol: To be specific, Biacore T200 was used in SPR analysis and HBS-EP (10 mM HEPES, pH7.4, 150 mM NaCl, 3 mM EDTA, 0.15% surfactant P20) was used as a running buffer. Surface preparation was done by using a surface preparation target immobilization tool of a wizard program (condition: 25° C., 5 μl/min). A ligand, hDLL4, was diluted in 10 mM sodium acetate (pH 4.5) to a final concentration of 10 μg/ml, and then immobilized to the surface of CM5 chip by a target immobilization level for each test group. In the immobilization process, two flow cells were included as one set wherein the first flow cell was set as a blank and the second flow cell has hDLL4 immobilized to the surface thereof in the present experiment. The first flow cell acted as a reference to account for experimental variability due to nonspecific bindings and buffer effects, and in the analysis, subtracted RU values (Fc2-Fc1) were used as experimental results. Anti-DLL4 antibodies that bind to hDLL4, i.e., MLCK1, MLCK2, MLCK-3, and MLCK4, were diluted in a running buffer to a final molar concentration of 100 nM, serially diluted 5 times, and each of the 5 dilutions was analyzed. The sample to be analyzed was prepared to have high purity and high concentration, enough to be diluted more than 100 times at minimum, thereby minimizing buffer effect. All analysis was done by using a wizard program, screening duplicates for each sample and a regeneration step was included in between each analysis step, so that the standard of experiment remains constant. The experimental results were analyzed by Biaevaluation software version 4.0. At this time, to determine the RU values (Fc2-Fc1 and Fc4-Fc3), the baseline was set to zero, the value measured at a buffer injection part (analyte, 0 nM) was subtracted from a whole sensorgram. […] The factors to be analyzed include kₐ(M⁻¹s⁻¹), kd(s⁻¹), Kₐ(1/M), and KD(M). […] Equilibrium dissociation constant KD(M) was calculated by dividing kd with kₐ (kd/kₐ).

[3] = target: T1, human DLL4 extracellular domain …; assay: ELISA solution competition: antibody premixed with DLL4-His; blocks binding to plate-coated hNotch-1-hFc
Protocol: Each well of a 96-well microtiter plate (Nunc-Immuno Plate, NUNC, Rochester, N.Y.) was coated with 100 μl of 500 ng/ml of hNotch-1-hFc protein (R&D Systems) (diluted in PBS) at 4° C. overnight, and non-specific binding sites were blocked with BSA for 2 hours.
The anti-DLL4 antibody (purified protein) on the 96-well microtiter plate was premixed with serial dilutions of antigen protein (DLL4 antigen, 600 ng/m) at an antibody concentration ranging from 0 nM to 140 nM. The antigen/antibody mixture was incubated for 30 minutes, and then transferred to a microtiter plate precoated with the DLL4 receptor hNotch-1 protein (50 ng/well) in order to measure free antibody. Then, the plate was incubated for 2 hours and washed five times with 0.05% tween 20-containing PBS. In order to detect the DLL4 antigen bound to the plate, an HRP-conjugated His anti-mouse IgG polyclonal antibody reagent (Roche applied science) was diluted at a ratio of 1:500, and the washed microtiter plate was treated with the diluted antibody reagent, and then allowed to react at 37° C. for 1 hour. Then, color development was performed using a colorimetric substrate (3,3′,5,5′-tetramethylbenzidine; Sigma-Aldrich Co.), and the enzymatic reaction was stopped using 0.5 mol/l of sulfuric acid. The amounts of antibodies required to achieve a 50% decrease in human DLL4-His bound to plate-coated Notch 1-Fc (IC₅₀) are shown in Table 1 below.

[4] = target: T2, human DLL4 stably expressed on HEK 293 cells (human, UniProt Q9NR61 27-685); assay: flow cytometry on HEK293 cells stably expressing human DLL4, 10 ug antibody
T2 construct: whole, on cells; also called human DLL4 antigen
Protocol: Specifically, human embryonic kidney cells (HEK 293) that stably express human DLL4 were prepared, and the degree of binding of the anti-DLL4 antibodies to DLL4 was measured using the prepared cells and a FACSCalibur system (BD Biosciences). The HEK293 cells that stably expressed DLL4 were dissociated, washed with PBS, adjusted to a cell number of 1×10⁵ cells/200 μl PBS, treated with 10 μg of each of the DLL4 monoclonal antibodies, and then allowed to react at room temperature for 30 minutes. After the reaction, the cells were washed with PBS and reacted with an FITC-labeled Fc-specific antibody (goat anti-human IgG FITC conjugate, Fc specific, Sigma, F9512; concentration: 2.0 mg/ml) at a concentration of 5 μl/1×10⁵ cells/200 μl PBS at 4° C. for 1 hours. After the reaction, the cells were washed with PBS and analyzed using a FACSCalibur system. A control group was treated only with an FITC-labeled Fc-specific antibody. The results of analysis of human DLL4-minoclonal antibody-FITC binding in the test group treated with each of the DLL4 monoclonal antibodies were compared with those in the control group.

[5] = target: T1, human DLL4 extracellular domain …; assay: SPR (Biacore T200), hDLL4 immobilized on CM5 chip, antibody as analyte, 1:1 model
Protocol: To be specific, Biacore T200 was used in SPR analysis and HBS-EP (10 mM HEPES, pH7.4, 150 mM NaCl, 3 mM EDTA, 0.15% surfactant P20) was used as a running buffer. Surface preparation was done by using a surface preparation target immobilization tool of a wizard program (condition: 25° C., 5 μl/min). A ligand, hDLL4, was diluted in 10 mM sodium acetate (pH 4.5) to a final concentration of 10 μg/ml, and then immobilized to the surface of CM5 chip by a target immobilization level for each test group. In the immobilization process, two flow cells were included as one set wherein the first flow cell was set as a blank and the second flow cell has hDLL4 immobilized to the surface thereof in the present experiment. The first flow cell acted as a reference to account for experimental variability due to nonspecific bindings and buffer effects, and in the analysis, subtracted RU values (Fc2-Fc1) were used as experimental results. Anti-DLL4 antibodies that bind to hDLL4, i.e., MLCK1, MLCK2, MLCK-3, and MLCK4, were diluted in a running buffer to a final molar concentration of 100 nM, serially diluted 5 times, and each of the 5 dilutions was analyzed. The sample to be analyzed was prepared to have high purity and high concentration, enough to be diluted more than 100 times at minimum, thereby minimizing buffer effect. All analysis was done by using a wizard program, screening duplicates for each sample and a regeneration step was included in between each analysis step, so that the standard of experiment remains constant. The experimental results were analyzed by Biaevaluation software version 4.0. At this time, to determine the RU values (Fc2-Fc1 and Fc4-Fc3), the baseline was set to zero, the value measured at a buffer injection part (analyte, 0 nM) was subtracted from a whole sensorgram. Then, the resulting RU value was analyzed by a 1:1 binding model to determine a binding affinity. The factors to be analyzed include kₐ(M⁻¹s⁻¹), kd(s⁻¹), Kₐ(1/M), and KD(M). […] Equilibrium dissociation constant KD(M) was calculated by dividing kd with kₐ (kd/kₐ).

T1 sequence (Q9NR61 27-522 limits assumed): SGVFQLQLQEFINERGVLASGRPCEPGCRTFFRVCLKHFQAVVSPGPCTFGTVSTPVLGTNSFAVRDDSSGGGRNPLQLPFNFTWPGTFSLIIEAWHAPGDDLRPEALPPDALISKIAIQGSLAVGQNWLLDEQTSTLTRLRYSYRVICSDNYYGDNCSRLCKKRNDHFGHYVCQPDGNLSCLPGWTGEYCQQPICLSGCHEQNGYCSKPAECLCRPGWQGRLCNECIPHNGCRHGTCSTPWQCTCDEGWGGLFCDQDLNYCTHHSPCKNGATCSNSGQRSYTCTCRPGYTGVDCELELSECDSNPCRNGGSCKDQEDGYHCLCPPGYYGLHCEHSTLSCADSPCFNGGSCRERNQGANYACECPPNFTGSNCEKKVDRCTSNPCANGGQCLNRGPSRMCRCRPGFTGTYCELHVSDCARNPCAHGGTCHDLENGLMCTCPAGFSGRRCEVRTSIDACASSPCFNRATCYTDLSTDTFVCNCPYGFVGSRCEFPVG
T2 sequence (Q9NR61 27-685): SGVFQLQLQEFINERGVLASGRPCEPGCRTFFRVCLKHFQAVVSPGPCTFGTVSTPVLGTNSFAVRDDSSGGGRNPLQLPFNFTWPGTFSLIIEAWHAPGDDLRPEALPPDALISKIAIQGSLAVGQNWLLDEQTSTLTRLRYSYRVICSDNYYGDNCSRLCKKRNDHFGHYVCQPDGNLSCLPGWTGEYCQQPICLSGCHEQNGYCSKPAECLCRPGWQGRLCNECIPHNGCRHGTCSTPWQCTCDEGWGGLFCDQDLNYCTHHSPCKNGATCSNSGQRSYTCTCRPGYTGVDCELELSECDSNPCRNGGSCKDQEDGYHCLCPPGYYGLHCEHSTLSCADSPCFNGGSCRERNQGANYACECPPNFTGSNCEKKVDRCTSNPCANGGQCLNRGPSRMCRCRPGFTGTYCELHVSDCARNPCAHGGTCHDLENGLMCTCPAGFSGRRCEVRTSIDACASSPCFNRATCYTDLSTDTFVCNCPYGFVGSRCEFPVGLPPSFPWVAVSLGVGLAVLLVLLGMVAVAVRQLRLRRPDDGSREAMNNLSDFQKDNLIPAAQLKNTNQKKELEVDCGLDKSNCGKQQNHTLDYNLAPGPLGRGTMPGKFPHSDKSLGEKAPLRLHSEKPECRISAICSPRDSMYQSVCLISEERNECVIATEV

B1: MLCK-4 (antibody, V domains shown)
VH: EVQLLESGGGLVQPGGSLRLSCAASGFTFSNYAMSWVRQAPGKGLEWVSWIYHGGGDTYYADSVKGRFTISRDNSKNTLYLQMNSLRAEDTAVYYCARGPNYTFGKPFDYWGQGTLVTVSS
VL: QSVLTQPPSASGTPGQRVTISCRGSPSNIGNNTVYWYQQLPGTAPKLLIYSDSQRPSGVPDRFSGSKSGTSASLAISGLRSEDEADYYCGSWDYSLSAYVFGGGTKLTVL
notes: Human monoclonal antibody from a phage scFv library; Only the variable regions are tied to the clone; In flow cytometry it was detected with an anti-human IgG Fc-specific antibody, so it carries a human Fc; also called anti-DLL4 antibody
Q: B1 was tested. Which “EC50 (read off the curve)” value [1] did it give?
A: ~0.2 pM

Q: What about the Ka [2] of the same binder?
A: 469000 M⁻¹

Q: And the koff [2]?
A: 0.00474 s⁻¹

Q: And the kon [2]?
A: 2220 M⁻¹ s⁻¹

Q: What about the IC50 [3] of the same binder?
A: 3.72 nM

Q: What about the “degree of binding to DLL4 antigen compared to the control group” value (“degree … compared to the control group” for short) [4] of the same binder?
A: 52.5%

Q: What about the Kd [5] of the same binder?
A: 2130 nM

B2: MLCK-1 (antibody, V domains shown)
VH: EVQLLESGGGLVQPGGSLRLSCAASGFTFSDYAMSWVRQAPGKGLEWVSWIYSDDGNKYYADSVKGRFTISRDNSKNTLYLQMNSLRAEDTAVYYCARADPPFDYWGQGTLVTVSS
VL: QSVLTQPPSASGTPGQRVTISCTGSSSNIGSNNVSWYQQLPGTAPKLLIYSDNNRPSGVPDRFSGSKSGTSASLAISGLRSEDEADYYCATWDSSLNGYVFGGGTKLTVL
notes: as for B1
Q: How did the “EC50 (read off the curve)” value [1] turn out when B2 was run?
A: ~0.1 pM

Q: And the Ka [2]?
A: 3.8e+06 M⁻¹

Q: What about the koff [2] of the same binder?
A: 0.0169 s⁻¹

Q: What about the kon [2] of the same binder?
A: 64100 M⁻¹ s⁻¹

Q: What about the IC50 [3] of the same binder?
A: 1.32 nM

Q: What about the “degree … compared to the control group” value [4] of the same binder?
A: 47.8%

Q: And the Kd [5]?
A: 263 nM

B3: MLCK-3 (antibody, V domains shown)
VH: EVQLLESGGGLVQPGGSLRLSCAASGFTFSDYAMSWVRQAPGKGLEWVSWIYYDSGSKYYADSVKGRFTISRDNSKNTLYLQMNSLRAEDTAVYYCARADLPFDYWGQGTLVTVSS
VL: QSVLTQPPSASGTPGQRVTISCSGSSSNIGNNAVTWYQQLPGTAPKLLIYSDNHRPSGVPDRFSGSKSGTSASLAISGLRSEDEADYYCGTWDASLSGYVFGGGTKLTVL
notes: as for B1
Q: What does the source list for B3?
A: EC50 (read off the curve) [1]: ~0.05 pM; Ka [2]: 1.44e+08 M⁻¹; koff [2]: 0.00359 s⁻¹; kon [2]: 516000 M⁻¹ s⁻¹; IC50 [3]: 0.38 nM; degree of binding to DLL4 antigen compared to the control group [4]: 52.9%; Kd [5]: 6.96 nM

B4: MLCK-2 (antibody, V domains shown)
VH: EVQLLESGGGLVQPGGSLRLSCAASGFTFSDYAMSWVRQAPGKGLEWVSWIYSGSGNKYYADSVKGRFTISRDNSKNTLYLQMNSLRAEDTAVYYCARADWPFDYWGQGTLVTVSS
VL: QSVLTQPPSASGTPGQRVTISCTGSSSNIGSNDVTWYQQLPGTAPKLLIYADSKRPSGVPDRFSGSKSGTSASLAISGLRSEDEADYYCGTWDYSLSAYVFGGGTKLTVL
notes: Human monoclonal antibody from a phage scFv library; Only the variable regions are tied to the clone; In flow cytometry it was detected with an anti-human IgG Fc-specific antibody, so it carries a human Fc; also called MLCK-2 mAb; anti-DLL4 antibody
Q: For B4, which “EC50 (read off the curve)” value [1] is on record?
A: ~0.04 pM

Q: What about the Ka [2] of the same binder?
A: 5.86e+08 M⁻¹

Q: And the koff [2]?
A: 0.000232 s⁻¹

Q: And the kon [2]?
A: 136000 M⁻¹ s⁻¹

Q: What about the IC50 [3] of the same binder?
A: 0.41 nM

Q: What about the “degree … compared to the control group” value [4] of the same binder?
A: 59%

Q: What about the Kd [5] of the same binder?
A: 1.71 nM
